Experiment [1] has as its target 20.8-kDa tegumental-allergen-like protein from Clonorchis sinensis (CsTAL3), full-length (aa 1-184) (Clonorchis sinensis). Kind of experiment: AUC; sedimentation velocity, 20 °C, 2.5 and 0.6 mg/mL, 50 x 10^3 rpm, interference optics, c(s) analysis; without CaCl2 and with 5 mM CaCl2.
For experiment [2] the target is unchanged. Kind of experiment: SAXS; 20 °C, 20 mM Tris-HCl pH 7.5, 100 mM NaCl, without or with 5 mM CaCl2; 1.9 to 5.2 mg/mL; molecular mass estimated against standard proteins.

Take “20.8-kDa tegumental-allergen-like protein from Clonorchis sinensis (CsTAL3), full-length (aa 1-184) (natural protein)”: the stoichiometry N in experiment [1] and in experiment [2] was 2 throughout.

The values above are taken from PMC5431922.
